Reference: article PMC7440162 (Cell, 2020)
Each block holds one binder with its values, some of them ahead of it.

Assays:
Assay in all cases: SPR
[1] = biological target: T1, PTPRS ECD-Fc (human, UniProt Q13332 30-1282)
T1 sequence: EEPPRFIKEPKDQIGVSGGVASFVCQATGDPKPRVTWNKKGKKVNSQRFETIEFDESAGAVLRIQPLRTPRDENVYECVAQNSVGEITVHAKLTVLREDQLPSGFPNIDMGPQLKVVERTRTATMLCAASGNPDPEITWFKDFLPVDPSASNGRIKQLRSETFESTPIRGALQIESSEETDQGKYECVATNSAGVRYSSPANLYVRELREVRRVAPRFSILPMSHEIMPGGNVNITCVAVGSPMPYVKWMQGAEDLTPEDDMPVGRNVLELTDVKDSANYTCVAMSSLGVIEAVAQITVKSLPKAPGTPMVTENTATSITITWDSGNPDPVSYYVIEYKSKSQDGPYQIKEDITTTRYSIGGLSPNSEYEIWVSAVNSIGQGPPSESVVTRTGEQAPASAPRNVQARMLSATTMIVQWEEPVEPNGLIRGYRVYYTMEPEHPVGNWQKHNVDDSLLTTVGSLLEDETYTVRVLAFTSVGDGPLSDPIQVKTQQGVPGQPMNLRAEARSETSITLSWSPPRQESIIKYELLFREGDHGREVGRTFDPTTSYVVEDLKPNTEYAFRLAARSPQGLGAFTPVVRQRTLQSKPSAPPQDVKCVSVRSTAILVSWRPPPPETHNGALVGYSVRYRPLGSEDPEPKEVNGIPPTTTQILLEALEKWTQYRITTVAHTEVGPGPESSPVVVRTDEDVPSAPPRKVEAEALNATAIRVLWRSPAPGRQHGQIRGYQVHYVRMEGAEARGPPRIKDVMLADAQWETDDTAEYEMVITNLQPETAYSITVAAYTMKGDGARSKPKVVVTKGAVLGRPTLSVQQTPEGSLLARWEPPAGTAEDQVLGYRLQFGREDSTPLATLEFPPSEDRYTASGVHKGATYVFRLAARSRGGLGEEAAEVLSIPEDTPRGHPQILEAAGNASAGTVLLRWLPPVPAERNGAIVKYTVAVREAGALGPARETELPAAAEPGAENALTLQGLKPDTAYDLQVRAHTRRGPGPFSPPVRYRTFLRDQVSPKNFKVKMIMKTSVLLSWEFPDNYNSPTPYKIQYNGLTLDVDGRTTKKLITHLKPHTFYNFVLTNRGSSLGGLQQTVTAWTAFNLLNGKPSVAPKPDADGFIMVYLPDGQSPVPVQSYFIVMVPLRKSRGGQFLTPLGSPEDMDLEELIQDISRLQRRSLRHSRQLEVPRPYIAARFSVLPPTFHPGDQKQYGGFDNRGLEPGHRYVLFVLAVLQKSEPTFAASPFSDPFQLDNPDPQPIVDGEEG

[2] = biological target: T2, PTPRF ECD-Fc (human, UniProt P10586 30-1263)
T2 sequence: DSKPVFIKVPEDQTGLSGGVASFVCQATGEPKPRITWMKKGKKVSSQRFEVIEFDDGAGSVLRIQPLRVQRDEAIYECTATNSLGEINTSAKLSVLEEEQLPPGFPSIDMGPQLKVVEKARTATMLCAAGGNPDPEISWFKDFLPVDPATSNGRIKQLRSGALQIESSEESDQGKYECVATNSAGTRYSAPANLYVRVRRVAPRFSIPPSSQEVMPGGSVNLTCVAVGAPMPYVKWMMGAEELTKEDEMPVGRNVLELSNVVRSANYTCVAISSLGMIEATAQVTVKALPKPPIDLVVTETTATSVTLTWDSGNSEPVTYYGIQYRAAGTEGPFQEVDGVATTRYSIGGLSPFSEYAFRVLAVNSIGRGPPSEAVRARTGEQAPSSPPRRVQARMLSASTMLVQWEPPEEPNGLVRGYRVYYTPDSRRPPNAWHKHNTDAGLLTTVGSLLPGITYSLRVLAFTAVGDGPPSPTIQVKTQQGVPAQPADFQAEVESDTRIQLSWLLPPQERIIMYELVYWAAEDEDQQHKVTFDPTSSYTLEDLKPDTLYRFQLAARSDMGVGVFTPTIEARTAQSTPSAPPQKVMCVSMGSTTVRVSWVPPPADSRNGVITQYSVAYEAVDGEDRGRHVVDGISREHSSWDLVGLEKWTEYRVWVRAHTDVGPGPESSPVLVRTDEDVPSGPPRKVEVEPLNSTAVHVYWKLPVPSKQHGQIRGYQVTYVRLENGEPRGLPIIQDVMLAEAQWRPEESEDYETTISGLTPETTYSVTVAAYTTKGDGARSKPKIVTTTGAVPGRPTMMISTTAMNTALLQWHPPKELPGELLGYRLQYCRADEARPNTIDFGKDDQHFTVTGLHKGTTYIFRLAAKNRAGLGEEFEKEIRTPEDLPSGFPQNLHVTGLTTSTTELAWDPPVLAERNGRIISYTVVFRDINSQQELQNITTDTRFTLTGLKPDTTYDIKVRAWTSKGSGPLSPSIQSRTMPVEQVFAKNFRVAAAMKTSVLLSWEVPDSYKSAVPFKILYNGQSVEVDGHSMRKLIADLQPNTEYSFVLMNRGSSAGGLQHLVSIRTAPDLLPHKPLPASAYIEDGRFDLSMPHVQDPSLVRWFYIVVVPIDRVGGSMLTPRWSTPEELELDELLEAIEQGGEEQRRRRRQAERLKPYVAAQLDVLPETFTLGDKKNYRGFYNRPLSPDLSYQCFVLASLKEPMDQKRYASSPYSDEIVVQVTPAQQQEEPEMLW

[3] = biological target: T3, PTPRD ECD-Fc (human, UniProt P23468 21-1265)
T3 sequence: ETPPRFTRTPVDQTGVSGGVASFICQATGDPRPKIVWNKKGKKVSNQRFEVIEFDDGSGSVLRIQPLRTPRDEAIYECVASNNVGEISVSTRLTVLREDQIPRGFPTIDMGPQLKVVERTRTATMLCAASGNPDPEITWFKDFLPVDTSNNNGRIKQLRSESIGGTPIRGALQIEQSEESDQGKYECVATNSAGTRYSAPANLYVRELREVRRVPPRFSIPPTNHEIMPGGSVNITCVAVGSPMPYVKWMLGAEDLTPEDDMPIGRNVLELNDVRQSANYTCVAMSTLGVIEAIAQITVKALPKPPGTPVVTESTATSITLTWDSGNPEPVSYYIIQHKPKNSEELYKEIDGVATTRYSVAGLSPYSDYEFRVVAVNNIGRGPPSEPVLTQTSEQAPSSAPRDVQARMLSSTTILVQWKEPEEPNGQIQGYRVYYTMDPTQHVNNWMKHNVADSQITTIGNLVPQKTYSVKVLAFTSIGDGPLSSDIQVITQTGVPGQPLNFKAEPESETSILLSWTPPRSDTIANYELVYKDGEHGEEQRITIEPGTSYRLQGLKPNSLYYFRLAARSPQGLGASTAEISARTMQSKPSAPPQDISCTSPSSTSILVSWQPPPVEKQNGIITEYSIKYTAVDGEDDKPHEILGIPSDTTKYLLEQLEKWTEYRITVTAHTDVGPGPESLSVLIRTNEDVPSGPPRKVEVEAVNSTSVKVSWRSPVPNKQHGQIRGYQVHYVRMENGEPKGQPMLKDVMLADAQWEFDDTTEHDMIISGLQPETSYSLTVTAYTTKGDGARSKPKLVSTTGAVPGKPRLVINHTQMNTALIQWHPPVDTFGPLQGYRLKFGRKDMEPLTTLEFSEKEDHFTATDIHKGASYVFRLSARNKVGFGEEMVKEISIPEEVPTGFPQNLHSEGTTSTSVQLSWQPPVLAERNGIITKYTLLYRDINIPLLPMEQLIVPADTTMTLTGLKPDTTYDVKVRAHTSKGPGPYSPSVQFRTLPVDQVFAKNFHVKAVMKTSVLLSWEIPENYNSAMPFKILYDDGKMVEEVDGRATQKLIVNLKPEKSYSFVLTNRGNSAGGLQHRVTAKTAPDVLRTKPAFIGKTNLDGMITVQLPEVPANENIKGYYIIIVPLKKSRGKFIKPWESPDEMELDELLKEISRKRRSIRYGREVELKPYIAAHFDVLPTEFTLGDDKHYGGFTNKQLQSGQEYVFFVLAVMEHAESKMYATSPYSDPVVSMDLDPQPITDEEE

[4] = biological target: T4, ICAM5 ECD-Fc (human, UniProt Q9UMF0 32-835, biotin on the AviTag (as SPR ligand))
T4 sequence: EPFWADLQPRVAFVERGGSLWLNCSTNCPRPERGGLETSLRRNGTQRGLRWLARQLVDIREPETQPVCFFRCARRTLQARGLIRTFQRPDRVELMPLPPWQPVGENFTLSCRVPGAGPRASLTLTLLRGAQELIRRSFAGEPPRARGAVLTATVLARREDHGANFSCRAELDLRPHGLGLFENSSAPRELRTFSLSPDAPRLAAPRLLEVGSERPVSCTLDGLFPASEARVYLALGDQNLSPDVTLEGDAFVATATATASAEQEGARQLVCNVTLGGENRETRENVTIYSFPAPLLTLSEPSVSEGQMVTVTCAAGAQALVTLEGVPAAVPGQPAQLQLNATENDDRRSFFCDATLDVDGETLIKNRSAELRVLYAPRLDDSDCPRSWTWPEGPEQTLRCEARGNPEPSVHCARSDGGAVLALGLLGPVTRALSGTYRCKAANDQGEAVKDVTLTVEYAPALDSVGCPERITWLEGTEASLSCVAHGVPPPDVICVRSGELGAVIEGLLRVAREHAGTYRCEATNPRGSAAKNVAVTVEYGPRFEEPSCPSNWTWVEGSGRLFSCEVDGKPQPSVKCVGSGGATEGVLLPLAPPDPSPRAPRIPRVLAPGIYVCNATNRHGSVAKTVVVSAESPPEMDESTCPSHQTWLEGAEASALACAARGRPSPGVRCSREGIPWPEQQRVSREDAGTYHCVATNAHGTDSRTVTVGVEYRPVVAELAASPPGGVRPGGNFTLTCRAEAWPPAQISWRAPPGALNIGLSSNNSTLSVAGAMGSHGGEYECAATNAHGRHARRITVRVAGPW

[5] = biological target: LTF-Fc (human, UniProt P02788, biotin on the AviTag (as SPR ligand))
LTF-Fc, sequence (P02788 20-710): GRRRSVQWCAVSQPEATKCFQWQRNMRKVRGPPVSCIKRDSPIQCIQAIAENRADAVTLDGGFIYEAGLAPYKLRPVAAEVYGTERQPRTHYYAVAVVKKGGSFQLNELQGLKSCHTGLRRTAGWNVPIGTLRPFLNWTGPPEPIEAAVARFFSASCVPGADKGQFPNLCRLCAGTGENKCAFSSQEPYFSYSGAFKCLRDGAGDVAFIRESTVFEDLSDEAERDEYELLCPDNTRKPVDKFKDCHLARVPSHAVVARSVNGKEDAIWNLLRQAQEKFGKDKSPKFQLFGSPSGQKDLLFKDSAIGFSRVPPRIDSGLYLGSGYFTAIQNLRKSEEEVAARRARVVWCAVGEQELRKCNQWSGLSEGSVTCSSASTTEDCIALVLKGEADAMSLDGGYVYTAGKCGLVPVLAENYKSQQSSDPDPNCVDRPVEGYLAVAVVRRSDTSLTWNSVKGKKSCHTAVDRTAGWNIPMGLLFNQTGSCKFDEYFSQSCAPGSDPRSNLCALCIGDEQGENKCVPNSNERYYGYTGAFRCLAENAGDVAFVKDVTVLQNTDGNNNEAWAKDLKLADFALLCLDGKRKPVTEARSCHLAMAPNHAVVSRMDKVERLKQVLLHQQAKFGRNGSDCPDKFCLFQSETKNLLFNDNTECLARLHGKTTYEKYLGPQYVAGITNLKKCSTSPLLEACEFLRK

binding result [1]: binds
binding result [2]: binds
binding result [3]: binds
B1: SALM3 ECD-Fc (Fc fusion)
chain: CPLPCVCQNLSESLSTLCAHRGLLFVPPNVDRRTVELRLADNFIQALGPPDFRNMTGLVDLTLSRNAITRIGARAFGDLESLRSLHLDGNRLVELGTGSLRGPVNLQHLILSGNQLGRIAPGAFDDFLESLEDLDLSYNNLRQVPWAGIGAMPALHTLNLDHNLIDALPPGAFAQLGQLSRLDLTSNRLATLAPDPLFSRGRDAEASPAPLVLSFSGNPLHCNCELLWLRRLARPDDLETCASPPGLAGRYFWAVPEGEFSCEPPLIARHTQRLWVLEGQRATLRCRALGDPAPTMHWVGPDDRLVGNSSRARAFPNGTLEIGVTGAGDAGGYTCIATNPAGEATARVELRVLALPHGGNSSAEGGRPGPSDIAASARTAAEGEGTLESEPAVQVTEVTATSGLVSWGPGRPADPVWMFQIQYNSSEDETLIYRIVPASSHHFLLKHLVPGADYDLCLLALSPAAGPSDLTATRLLGCAHFSTLPASPLCHALQAHVLGGTL
modifications: biotin on the AviTag (as SPR ligand)

binding result [4]: binds
binding result [5]: binds
B2: human ISLR2 ECD-Fc (Fc fusion)
chain: SCPEPCACVDKYAHQFADCAYKELREVPEGLPANVTTLSLSANKITVLRRGAFADVTQVTSLWLAHNEVRTVEPGALAVLSQLKNLDLSHNFISSFPWSDLRNLSALQLLKMNHNRLGSLPRDALGALPDLRSLRINNNRLRTLAPGTFDALSALSHLQLYHNPFHCGCGLVWLQAWAASTRVSLPEPDSIACASPPALQGVPVYRLPALPCAPPSVHLSAEPPLEAPGTPLRAGLAFVLHCIADGHPTPRLQWQLQIPGGTVVLEPPVLSGEDDGVGAEEGEGEGDGDLLTQTQAQTPTPAPAWPAPPATPRFLALANGSLLVPLLSAKEAGVYTCRAHNELGANSTSIRVAVAATGPPKHAPGAGGEPDGQAPTSERKSTAKGRGNSVLPSKPEGKIKGQGLAKVSILGETETEPEEDTSEGEEAEDQILADPAEEQRCGNGDPSRYVSNHAFNQSAELKPHVFELGVIALDVAEREARVQLTPLAARWGPGPGGAGGAPRPGRRPLRLLYLCPAGGGAAVQWSRVEEGVNAYWFRGLRPGTNYSVCLALAGEACHVQVVFSTKKELPS
modifications: biotin on the AviTag (as SPR ligand)

binding result [1]: binds
binding result [2]: binds
binding result [3]: binds
B3: SALM5 ECD-Fc (Fc fusion)
chain: QICPKRCVCQILSPNLATLCAKKGLLFVPPNIDRRTVELRLADNFVTNIKRKDFANMTSLVDLTLSRNTISFITPHAFADLRNLRALHLNSNRLTKITNDMFSGLSNLHHLILNNNQLTLISSTAFDDVFALEELDLSYNNLETIPWDAVEKMVSLHTLSLDHNMIDNIPKGTFSHLHKMTRLDVTSNKLQKLPPDPLFQRAQVLATSGIISPSTFALSFGGNPLHCNCELLWLRRLSREDDLETCASPPLLTGRYFWSIPEEEFLCEPPLITRHTHEMRVLEGQRATLRCKARGDPEPAIHWISPEGKLISNATRSLVYDNGTLDILITTVKDTGAFTCIASNPAGEATQIVDLHIIKLPHLLNSTNHIHEPDPGSSDISTSTKSGSNTSSSNGDTKLSQDKIVVAEATSSTALLKFNFQRNIPGIRMFQIQYNGTYDDTLVYRMIPPTSKTFLVNNLAAGTMYDLCVLAIYDDGITSLTATRVVGCIQFTTEQDYVRCHFMQSQFLGGTM
modifications: biotin on the AviTag (as SPR ligand)
